Source: patent US20130261013A1 (MODPRO, published 2013)
Square brackets hold non-standard residues; d marks the D form. Side chains are listed from the residue outwards. Ends that are not written are not given here. * marks the point of attachment. X2 = 7‑methoxycoumarin‑3‑carboxylic acid, COc1ccc2cc(C(=O)*)c(=O)oc2c1; Dansyl = CN(C)c1cccc2c(S(=O)(=O)*)cccc12; Ahx = NCCCCCC(=O)O

How the values were obtained:
[1] = biological target: T1, human D-dimer protein (human, UniProt P02671 124-216; P02675 164-491; P02679 89-437); experiment: SPR (Biacore 2000) screen, D-dimer immobilized on a CM5 chip, binder at 1, 10 and 100 nM, 3 min injection, 10 min clearance
T1 construct: Bought from Abcam Inc. UK; the chain make-up here is from general knowledge
T1 sequence (looked up) 1: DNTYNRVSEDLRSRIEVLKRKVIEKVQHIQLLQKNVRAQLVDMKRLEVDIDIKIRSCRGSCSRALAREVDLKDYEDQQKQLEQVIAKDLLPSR
T1 sequence (looked up) 2: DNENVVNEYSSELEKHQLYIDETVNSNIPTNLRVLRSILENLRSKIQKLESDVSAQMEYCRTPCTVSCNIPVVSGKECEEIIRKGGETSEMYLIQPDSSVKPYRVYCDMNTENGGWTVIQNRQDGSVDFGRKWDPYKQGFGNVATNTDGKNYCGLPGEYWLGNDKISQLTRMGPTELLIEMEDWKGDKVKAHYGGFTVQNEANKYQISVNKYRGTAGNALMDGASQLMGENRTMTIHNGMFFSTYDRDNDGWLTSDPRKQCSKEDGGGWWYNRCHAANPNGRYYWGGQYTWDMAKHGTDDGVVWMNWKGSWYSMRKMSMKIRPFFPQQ
T1 sequence (looked up) 3: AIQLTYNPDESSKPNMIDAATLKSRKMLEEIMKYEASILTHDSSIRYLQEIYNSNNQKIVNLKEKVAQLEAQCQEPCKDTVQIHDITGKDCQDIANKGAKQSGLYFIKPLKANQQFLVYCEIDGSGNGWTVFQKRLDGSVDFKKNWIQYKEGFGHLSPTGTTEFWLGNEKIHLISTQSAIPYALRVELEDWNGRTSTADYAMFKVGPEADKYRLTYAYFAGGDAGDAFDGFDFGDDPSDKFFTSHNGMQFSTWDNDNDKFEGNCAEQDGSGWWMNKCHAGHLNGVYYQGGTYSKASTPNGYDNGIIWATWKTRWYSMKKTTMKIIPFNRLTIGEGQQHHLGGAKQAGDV
Experimental: (§1) The protein was then further diluted with 10 mM NaOAc at pH 4.6 to give a concentration of about 32 μg/mL. The D-dimer protein was covalently immobilized on the sensor chip surface by amine coupling with HBS-EP (10 mM HEPES, pH 7.4, 150 mM NaCl, 3 mM EDTA and 0.005% P20) (GE Healthcare Bio-Sciences, Uppsala, Sweden) as a running buffer. The CM5 sensor chip surface was activated for 7 min by injecting a solution of EDC/NHS (200 mM 1-ethyl-3-(3-dimethylaminopropyl)-carbodiimide hydrochloride/50 mM N-hydroxysuccinimide) (GE Healthcare Bio-Sciences, Uppsala, Sweden). The D-dimer protein was injected for 1.5 min at flow rate of 5 uL/min over the activated surface and followed by 7-min pulse of 1M ethanolamine at pH 8.5 to deactivate remaining active ester.
The interactions between the D-dimer protein and binders as well as surface competition experiments were studied using a Biacore 2000 instrument (GE Healthcare Bio-Sciences, Uppsala, Sweden), equilibrated at 25° C. The CM5 sensor chip (Research grade, Biacore) and reagents were from GE Healthcare Bio-Sciences, Uppsala, Sweden. For direct interaction studies between immobilized D-dimer protein and polypeptide conjugates, HBS-EP was used as running buffer. […] For minimum sample dispersion, the samples were injected at a flow rate of 50 uL/min. […]

[2] = biological target: T2, human Carbonic Anhydrase II (human, UniProt P00918 2-260); experiment: fluorescence titration, 50 nM fluorescein labelled binder, HCAII 20 pM to 1 µM
Experimental: The fluorescence titrations were carried out using polypeptides conjugated to a dansyl group rather than a 7-methoxycoumarin to avoid overlap with fluorescein, but a fluorophore is present in each sequence of the scaffold library to simplify identification and quantification throughout synthesis and purification. […] Fluorescence intensities of protein-binder mixtures were compared to intensities of binders without protein. The analysis was performed in 50 mM Hepes buffer at pH 7.4 containing 150 mM NaCl. HCAII was added in 25 steps over a concentration range from 20 pM to 1 μM to the binder at 50 nM concentration and the results analyzed by curve fitting.

[3] = biological target: T2, human Carbonic Anhydrase II; experiment: SPR, HCAII immobilized on CM5, 1:1 model
Experimental: (§2) HCAI and HCAII were immobilized in different flowcells on a CM-5 (Biacore) chip using standard EDC/NHS coupling in Acetate buffer at pH 5.5.
(§3) SPR measurements were performed on a Biacore® 2000 instrument, with the proteins immobilized on a Biacore® CM-5 sensor chips (GE Healthcare). All interaction studies were performed in Biacore® HSB-EP buffer with the addition of 1% (v/v) DMSO. HCAII (Sigma, lyophilized powder) was dissolved in Acetate buffer pH 5.5 to a 2 mg/mL solution. HCAII were conjugated to the surface by EDC/NHS coupling reactions in Acetate buffer pH 5.5. Solutions of the polypeptide binders were prepared in HBS-EP buffer from stock solutions of 20 μM in DMSO and allowed to flow over the surface at 20 μL/min, with blank injections after every series. All samples were adjusted to contain 1% (v/v) DMSO. Injections were made for 30 s and dissociation was allowed to proceed for 3000 s. Evaluation was performed using a 1:1 binding model.

[4] = biological target: T3, human Carbonic Anhydrase I (human, UniProt P00915 2-261); experiment: SPR, HCAI immobilized on CM5, 1:1 model
T3 construct: also called HCAI; HCA I
T3 sequence (P00915 2-261 limits assumed): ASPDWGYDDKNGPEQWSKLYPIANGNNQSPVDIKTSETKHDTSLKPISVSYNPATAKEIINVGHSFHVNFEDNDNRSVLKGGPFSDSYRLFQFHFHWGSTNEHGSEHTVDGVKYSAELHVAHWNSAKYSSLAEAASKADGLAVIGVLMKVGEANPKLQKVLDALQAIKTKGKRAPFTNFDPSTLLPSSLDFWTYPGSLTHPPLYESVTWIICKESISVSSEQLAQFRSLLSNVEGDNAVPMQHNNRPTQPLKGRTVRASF
Experimental: as §2, §3

[5] = biological target: T2, human Carbonic Anhydrase II; experiment: SPR (Biacore 2000), HCAII immobilized on CM5, 1:1 model
Experimental: The sixteen polypeptide conjugates were also characterized by SPR biosensor analysis (Biacore®, GE Healthcare), using a Biacore® 2000 instrument, Biacore® CM-5 chip and HBS-EP buffer pH 7.4 (Biacore®, GE Healthcare) with addition of 1% DMSO for the interaction studies. Peptide solutions were prepared by dilution in buffer from 20 μM stock solutions in DMSO. HCAII was immobilized on the chip using standard EDC/NHS coupling in Acetate buffer pH 5.5. The binders were allowed to flow over the chip at 7 concentrations in the range from 1 nM to 500 nM and the interactions were evaluated using a 1:1 binding model (BiaEvaluation).
as §3, with “Evaluation was performed using a 1:1 binding model.” left out

[6] = biological target: T1, human D-dimer protein; experiment: SPR screen (Biacore 2000), D-dimer immobilized on CM5, 1:1 Langmuir model
Experimental: as §1
(§4) The interactions between the D-dimer protein and binders as well as surface competition experiments were studied using a Biacore 2000 instrument (GE Healthcare Bio-Sciences, Uppsala, Sweden), equilibrated at 25° C. The CM5 sensor chip (Research grade, Biacore) and reagents were from GE Healthcare Bio-Sciences, Uppsala, Sweden. For direct interaction studies between immobilized D-dimer protein and polypeptide conjugates, HBS-EP was used as running buffer. […] For minimum sample dispersion, the samples were injected at a flow rate of 50 uL/min. After 10 min of dissociation the surface was regenerated by 30 s pulse injection of 10 mM glycine at pH 3.0. All injections were serial and first passed over the deactivated dextran surface and then over the immobilized surfaces. Blank injections were included for each measurement series and subtracted from the data. Experiments were performed at least twice, unless stated otherwise. […] The dissociation constants, Kd, were obtained using the Biaevaluation program version 3.2 (Biacore) and assuming a simple 1:1 Langmuir binding mechanism.

[7] = biological target: T1, human D-dimer protein; experiment: SPR (Biacore 2000), D-dimer immobilized on CM5, binders at 5-160 nM, 1:1 Langmuir model
[8] = biological target: T3, human Carbonic Anhydrase I; experiment: SPR, HCAI immobilized on CM5, 1:1 model; the heads Koff and Kon seem to be swapped
Experimental: as §2, §3

[9] = biological target: T2, human Carbonic Anhydrase II; experiment: SPR, ratio of the dissociation constants for HCAI and HCAII
From the text: as §2

[10] = biological target: T1, human D-dimer protein; experiment: SPR surface competition, D-dimer immobilized; competitor 4-D10L17-GPRP at 100 nM; GPRP in running buffer, competing with 100 nM 4-D10L17-GPRP (Biacore)
Experimental: as §4

B1: 1D15L8_GPRP (designed binder)
polypeptide: Ac-NEADLEAKIRHLAEKLEARGPEDAEQLAEQLARAFEAFARAG
ligand peptide, branch on Lys8: GPRP[Ahx]G
modifications: not fully specified (some residues); also: reporter group on Lys15, bond at chain A 8 to a chain's C-terminus via 6-aminocaproic acid-Gly
- binding result [1]: no binding (tested: 100 nM)

Binder: Ac-NAADLEAK([Ahx-benzenesulphonamide carboxylic acid])IRHLAEK(Dansyl)LAARGPVDC(N‑(5-fluoresceinyl)maleimide)AQLAEQLARRFEAFARAG (designed binder) [3-C15L8-B with dansyl and fluorescein (form for fluorescence titration)]
- Kd [2]: 29 nM

Binder: Ac-NAADLEAK([Ahx-benzenesulphonamide carboxylic acid])IRHLAEK(X2)LAARGPVDAAQLAEQLARRFEAFARAG (designed binder) [3-C15L8-B]
- Kd [3]: 60 nM
- Kd [4]: 390 nM
- Kd [5]: 43 nM

B2: 2D15L8_GPRP (designed binder)
chain: Ac-NEADLEAK([Gly-Ahx-Pro-Arg-Pro-Gly])IRHLAEKLAARGPVDAAQLAEQLARAFEAFARAG
modifications: also: reporter on Lys15
notes: 'D' in place of 'C' in the name is not explained; tied to 2-C15L8 by the rest of the name
- Kd [6]: 10400 nM

Binder: Ac-NEADLEAAIRHLAEALAARGPK([Gly-Ahx-Pro-Arg-Pro-Gly])DAKQLAEQLARAFEAFARAG (designed binder, also: reporter on Lys25, 'D' in the name not explained) [2D25L22_GPRP]
- Kd [6]: 16100 nM

Binder: Ac-NAADLEAAIK(Dansyl)HLAEALK([Ahx-benzenesulphonamide carboxylic acid])ERGPEDC(N‑(5-fluoresceinyl)maleimide)EQLAEQLARAFEAFARAG (designed binder) [1-C10L17-B with dansyl and fluorescein (form for fluorescence titration)]
- Kd [2]: 5 nM

Binder: Ac-NAADLEAAIRHLAERLAARGPVDAAQLAEQLAAK([Gly-Ahx-Pro-Arg-Pro-Gly])FEKFARAG (designed binder, also: reporter on Lys37, 'D' in the name not explained) [2D37L34_GPRP]
- Kd [6]: 13600 nM

B3: 3D37L34_GPRP (designed binder)
chain: Ac-NAADLEAAIRHLAERLAARGPVDAAQLAEQLARK([Gly-Ahx-Pro-Arg-Pro-Gly])FEKFARAG
modifications: also: reporter on Lys37
notes: 'D' in the name not explained; a Cys in the loop region may be present
- Kd [7]: 15.4 nM
- Kd [6]: 1150 nM

Binder: Ac-NEADLEAAIRHLAERLEARGPADAAQLAEQLAAK([Gly-Ahx-Pro-Arg-Pro-Gly])FEKFARAG (designed binder, also: reporter on Lys37, 'D' in the name not explained) [1D37L34_GPRP]
- Kd [6]: 5070 nM

Binder: Ac-NAADLEARIRHLRERLAARGPRDAAQLAEQLARK([Ahx-benzenesulphonamide carboxylic acid])FEK(X2)FARAG (designed binder, not fully specified (C-terminus)) [4-C37L34-B]
- kon [8]: 4400 M⁻¹ s⁻¹
- factor of discrimination between HCAI and HCAII [9]: ~30 fold
- Kd [3]: 17 nM
- Kd [4]: 470 nM
- Kd [5]: 15 nM

Binder: GPRP (also called GPRP tetrapeptide) [GPRP peptide]
- IC50 [10]: ~50000 nM

Binder: Ac-NAADLEAAIKHLAEALK([Gly-Ahx-Pro-Arg-Pro-Gly])ARGPVDAAQLAEQLARAFEAFARAG (designed binder, also: reporter on Lys10, 'D' in the name not explained) [2D10L17_GPRP]
- Kd [6]: 10300 nM
